# B1: archaeal ribosome dimerization factor (aRDF) (natural protein, Pyrococcus furiosus)
# chain: MKVVGIKGSVSYLQALKYLKTKKVTKRLKEIEKLVDTLITLAPYAPEGSKIETIRKNYAKISFNKIKTVSRSKIGSPRIKSIMLLLWNFGLLDVKIIENSWYVRKTKLASLLEENFKDLSPSEKLKVYLLGGLLVDTPARFVYRCTLNGVEDYKGVKKAILGYLSDQRSNSLIIGLSNMLESIKFIEEAQAYSGKKEYIGLVDVAFYGLSGLYLDVKRESGKLTVKPNFRELRALYEIDKSVATGSDYGLSISKEILENLANTKRRKTIFSEEVQELLVNVIKENAISISQDLQNMYGII
# notes: aRDF (PF0560 protein) of Pyrococcus furiosus; modelled in PDB 9FNY and 9FNZ with poorly defined loops omitted; Forms homodimers (monomers A and B); two homodimers bridge two 30S subunits in the cryo-EM structures; also called PF0560; PF0560 protein; source: E. coli BL21(DE3), purified (heat treatment, Ni-NTA, heparin)
# Molecular target: the molecule itself
# Assay: cryo-EM structure; 1 uM P. furiosus 30S subunits with 5 uM aRDF (1:5) in 20 mM HEPES-KOH pH 7.0, 12 mM MgCl2, 100 mM NH4Cl, 0.5 mM EDTA; 15 min at 70 °C before freezing; Structures I and II at 3.2 Å
protein,measurement,value
B1,stoichiometry N,2

# From article PMC11724365, “Novel archaeal ribosome dimerization factor facilitating unique 30S–30S dimerization” (Nucleic Acids Research, 2025)
